Reference: PMC5429843

Assays:
His187 = His187 (UniProt position 187, ITIKQHTVTTT); test: NMR; conditions: 20 °C, not stated (36 mM sodium phosphate + 36 mM sodium citrate, no added salt stated), folded GHaPrP90-231, 1 mM
His186 = His186 (UniProt position 186, ITVKQHTVTTT); test: NMR; conditions: 20 °C, not stated (36 mM sodium phosphate + 36 mM sodium citrate, no added salt stated), folded RaPrP90-231, 1 mM

Question: For “Major prion protein, C-terminal domain (GHaPrP90-231) (Mesocricetus auratus (golden/Syrian hamster))”, which pKa (His187) is on record?
Answer: Its pKa is 4.9 ± 0.2.

Question: And the pKa (His187; oxidised disulfide. Progressive loss of amide dispersion and peak inhomogeneity near pH 5.)?
Answer: Its pKa is 4.9 ± 0.1.

Question: Which pKa (His186) does the source give for “Major prion protein, C-terminal domain (RaPrP90-231) (Oryctolagus cuniculus (rabbit))” here?
Answer: The pKa was 5.1.

Question: What about the pKa (His186; oxidised disulfide) of the same substance?
Answer: The pKa was 5.1 ± 0.1.
